{"source": "paper PMC4266533", "about": "“Kinetics of the early events of GPCR signalling” (Febs Letters, 2014)", "binders": {"B1": {"name": "His6-Gαs (alpha subunit of the stimulatory G protein Gs) (natural protein, UniProt P63092 1-394, looked up)", "chain": "MGCLGNSKTEDQRNEEKAQREANKKIEKQLQKDKQVYRATHRLLLLGAGESGKSTIVKQMRILHVNGFNGEGGEEDPQAARSNSDGEKATKVQDIKNNLKEAIETIVAAMSNLVPPVELANPENQFRVDYILSVMNVPDFDFPPEFYEHAKALWEDEGVRACYERSNEYQLIDCAQYFLDKIDVIKQADYVPSDQDLLRCRVLTSGIFETKFQVDKVNFHMFDVGGQRDERRKWIQCFNDVTAIIFVVASSSYNMVIREDNQTNRLQEALNLFKSIWNNRWLRTISVILFLNKQDLLAEKVLAGKSKIEDYFPEFARYTTPEDATPEPGEDPRVTRAKYFIRDEFLRISTASGDGRHYCYPHFTCAVDTENIRRVFNDCRDIIQRMHLRQYELL", "notes": "Alpha subunit of Gs; construct donated by Renaud Wagner (University of Strasbourg); Also tested with GTPγS (same protein, assay a2); also called His6-Gs; His-Gαs"}}, "key": {"[1]": {"target": "T1, FLAG-NTS1 (neurotensin receptor type 1) reconstituted into PC:PG nanodiscs, neurotensin-bound (UniProt P20789 1-424)", "T1 construct": "Neurotensin (NT), 13 amino acid peptide, agonist kept in excess (5 uM) with the receptor; The receptor stood in ~10 nm lipid nanodiscs with the belt protein MSP1D1 (Addgene plasmid 20061, made in E. coli BL21(DE3)); MSP1D1 is not written as a chain; Primarily one receptor per disc (50:1 MSP1D1:FLAG-NTS1); also called FLAG-NTS1-PC:PG nanodiscs; NTS1-nanodiscs", "T1 sequence (P20789 whole entry)": "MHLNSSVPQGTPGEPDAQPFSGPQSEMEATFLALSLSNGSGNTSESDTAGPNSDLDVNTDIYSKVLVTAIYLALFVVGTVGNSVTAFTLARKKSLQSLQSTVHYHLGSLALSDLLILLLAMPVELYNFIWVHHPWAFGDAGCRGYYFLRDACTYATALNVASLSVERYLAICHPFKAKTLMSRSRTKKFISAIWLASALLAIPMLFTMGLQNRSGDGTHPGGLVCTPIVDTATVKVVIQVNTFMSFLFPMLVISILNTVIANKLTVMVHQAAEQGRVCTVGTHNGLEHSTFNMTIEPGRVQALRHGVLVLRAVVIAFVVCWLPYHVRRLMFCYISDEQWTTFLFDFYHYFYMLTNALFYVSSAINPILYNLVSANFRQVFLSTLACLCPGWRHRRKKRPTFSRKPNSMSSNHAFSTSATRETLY", "experiment": "SPR; FLAG-NTS1-PC:PG nanodiscs (2500 RU) captured on an L1 chip, empty PC:PG nanodiscs (2000 RU) in the reference cell; His6-Gs as analyte, 62.5-1000 nM, 150 s per concentration at 50 ul/min; 1:1 Langmuir and heterogeneous ligand binding fits", "details": "both partners purified"}, "[2]": {"target": "T1, FLAG-NTS1 (neurotensin receptor type 1) …", "experiment": "SPR; Gα amine-coupled to a CM5 chip (Biacore T100/T200); NT-bound (5 uM NT) anti-FLAG-enriched FLAG-NTS1-PC:PG nanodiscs as analyte, serially diluted from 660 nM or 400 nM; single cycle kinetics at 30-50 ul/min; empty nanodiscs as reference, double-referenced; 50 mM Tris-HCl pH 7.4, 100 mM NaCl, 5 mM MgCl2; heterogeneous ligand binding global fit", "details": "both partners purified"}}}
{"binder": "B1", "values": [{"measurement": "Kd", "setting": "[1]", "value": 65, "unit": "nM"}, {"measurement": "Kd", "setting": "[2]", "value": 9, "unit": "nM"}]}
